Laboratory results: the supplement of paper PMC12764529
± gives the half width of the 95% confidence interval.

Columns and labels:
[1] = folding stability dG unfold from trypsin proteolysis; higher = more stable
Procedure, shortened: (§1)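 Only designs with AlphaFold2 dimer inter-PAE above 15 were retained; each was a mini-protein under 80 residues with no cysteine, in a PA-tagged cDNA display construct. After digestion with trypsin and chymotrypsin and sequencing, K50 was inferred by Bayesian fitting of counts, and unfolding free energy was derived per protease or combined against a sequence-predicted unfolded-state K50 and a shared folded-state K50.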

[2] = folding stability dG unfold from chymotrypsin proteolysis; higher = more stable
Procedure, shortened: as §1

[3] = folding stability dG unfold (combined trypsin and chymotrypsin); higher = more stable
Procedure, shortened: as §1

## SAGSVTITLNIPPGQDVTLNIGGKEATLTVDPETKVYTMTDPQTGDVWTVTVDPNSPVASVTYTAAPAGSAG [r5_302_JUSTAS]
[1]
  folding stability dG unfold: 0.996 ± 0.039 kcal/mol
[2]
  folding stability dG unfold: 1.57 ± 0.15 kcal/mol
[3]
  folding stability dG unfold: 1.37 ± 0.11 kcal/mol

## SAGSVTVTETKTEGDKETITMTRPETGETVEEKITKKNGKVKVTKTYYSPSGVKLGSSEKVLSESELLLSAG [r5_308_JUSTAS]
[1]
  folding stability dG unfold: -0.0129 ± 0.18 kcal/mol
[2]
  folding stability dG unfold: -0.195 ± 0.33 kcal/mol
[3]
  folding stability dG unfold: -0.0136 ± 0.26 kcal/mol

## SAGTAKELAELLPGATVEVDEETGTVTVTVELDGYTVRIEIRVDPETGEIVEIRITVTNPDGEEREFELSAG [r5_367_TrROS_Hall]
[1]
  folding stability dG unfold: 3.01 ± 0.077 kcal/mol
[2]
  folding stability dG unfold: 2.92 ± 0.096 kcal/mol
[3]
  folding stability dG unfold: 2.94 ± 0.062 kcal/mol

## SAGTELELEAEAEVLFPELGTRARVRVRARVRPTEDEVEVELEVEAEFEPLPLVPPIVSPEENPELAEGSAG [r14_435_TrMRF]
[1]
  folding stability dG unfold: 3.19 ± 0.12 kcal/mol
[2]
  folding stability dG unfold: 2.7 ± 0.14 kcal/mol
[3]
  folding stability dG unfold: 3.08 ± 0.17 kcal/mol

## SAGTIHFMVPRDEMSDEEAEDIVNTIAKHFPGFKIDRIYWHKQPDPDGDPRRMYHVEIKIKIPLPPGMKSAG [r5_835_TrROS]
[1]
  folding stability dG unfold: 1.29 ± 0.022 kcal/mol
[2]
  folding stability dG unfold: 2.41 ± 0.06 kcal/mol
[3]
  folding stability dG unfold: 2.06 ± 0.059 kcal/mol

## SAGTIRLNGLELEVDIEWWPEHGYITINVTITWPNGRTMMMQIIIKVKPVKPPPPPPPKYDPDNGKPKASAG [r5_816_TrROS]
[1]
  folding stability dG unfold: 2.97 ± 0.1 kcal/mol
[2]
  folding stability dG unfold: 4.38 ± 0.25 kcal/mol
[3]
  folding stability dG unfold: 3.68 ± 0.34 kcal/mol

## SAGTIVFSRDELKELGIPEDMTVEEIKQKILDRLKEEGYEVKITKIEVVEVDEEEGRVLVRITIEVKKPSAG [r5_23_TrROS_Hall]
[1]
  folding stability dG unfold: 3.69 ± 0.14 kcal/mol
[2]
  folding stability dG unfold: 4.28 ± 0.13 kcal/mol
[3]
  folding stability dG unfold: 4.17 ± 0.13 kcal/mol

## SAGTLVLVIEVPLEDVTPEQAEEIAEEAARFLREAGLPEGIEVEDVRVERLPDGRLLVLLPMRILEDESAGG [r19_87_TrMRF]
[1]
  folding stability dG unfold: 1.97 ± 0.056 kcal/mol
[2]
  folding stability dG unfold: 2.59 ± 0.059 kcal/mol
[3]
  folding stability dG unfold: 2.41 ± 0.14 kcal/mol

## SAGTVRLEVTVVIKLTKEQIENLPKDVKLEDGAEIEEKDDYLVIKRTIELPPPVVTDKDGKKLPLEELSAGG [r19_148_TrROS_Hall]
[1]
  folding stability dG unfold: 0.23 ± 0.17 kcal/mol
[2]
  folding stability dG unfold: 1.4 ± 0.087 kcal/mol
[3]
  folding stability dG unfold: 0.938 ± 0.32 kcal/mol

## SAGTVTIGIWIPADDIEQIKELIRSIAEEHGWEVKVDKIEPNPDGQYFVTVTVENPENGKEIKITIWIPSAG [r5_41_TrROS]
[1]
  folding stability dG unfold: 2.98 ± 0.056 kcal/mol
[2]
  folding stability dG unfold: 3.39 ± 0.044 kcal/mol
[3]
  folding stability dG unfold: 3.25 ± 0.11 kcal/mol

## SAGVDGVKWNPESNEVSVEYEVNNQRVEQYIEPKPIPPVIVIPIDDIAERNPGLKDDLDENPGDWLVFPSAG [r5_958_TrROS]
[1]
  folding stability dG unfold: 0.79 ± 0.077 kcal/mol
[2]
  folding stability dG unfold: -0.332 ± 0.089 kcal/mol
[3]
  folding stability dG unfold: 0.415 ± 0.09 kcal/mol

## SAGWFISIKYKDPPTGRKRKISIPIPPGDPWLKELGFPSLDGLAKWLAPEMREEGHDVKDVKVEIMPPKSAG [r5_722_TrROS]
[1]
  folding stability dG unfold: 3.38 ± 0.19 kcal/mol
[2]
  folding stability dG unfold: 4.16 ± 0.059 kcal/mol
[3]
  folding stability dG unfold: 3.75 ± 0.16 kcal/mol

## SAGWIIRITLPDNGRTIEIDFENGYIIKITSPDEGKPRVIPIPPDDIREWIKELFPGPVRIVEIYPLPKSAG [r5_519_TrROS]
[1]
  folding stability dG unfold: 2.21 ± 0.042 kcal/mol
[2]
  folding stability dG unfold: 3.09 ± 0.05 kcal/mol
[3]
  folding stability dG unfold: 2.69 ± 0.083 kcal/mol

## SAGWIMINSPEDAERIVEELRKLLPPGYKIDVEPMPNGSVMIEFENPEEGREIKIHYDRRNGMYWIEPVSAG [r5_358_TrROS]
[1]
  folding stability dG unfold: 2.58 ± 0.13 kcal/mol
[2]
  folding stability dG unfold: 2.54 ± 0.079 kcal/mol
[3]
  folding stability dG unfold: 2.59 ± 0.11 kcal/mol

## SAGWISPKQLRHALRNGKPIKIYMPNPQNKEHAKNWLRQETGLPKEEQKELLKDVKIEPMPPNDPNFKKSAG [r5_368_TrROS]
[1]
  folding stability dG unfold: 0.128 ± 0.33 kcal/mol
[2]
  folding stability dG unfold: 0.497 ± 0.47 kcal/mol
[3]
  folding stability dG unfold: -0.0521 ± 0.45 kcal/mol

## SAGWYIKVEVYYGGKKHTFMIPRKQAKELRKKYPPGDEIPIPFNGRDVEIRVQVIPPPPPSPEDAADNKSAG [r5_669_TrROS]
[1]
  folding stability dG unfold: 1.83 ± 0.047 kcal/mol
[2]
  folding stability dG unfold: 2.75 ± 0.12 kcal/mol
[3]
  folding stability dG unfold: 2.44 ± 0.17 kcal/mol

## SAGYEWVRELAKKKGFKDIKIEDVQPQRPPDGMEYMHVRIEVQHPGKKREVDIWMRPDNIEEALEQALKSAG [r5_549_TrROS]
[1]
  folding stability dG unfold: 0.402 ± 0.096 kcal/mol
[2]
  folding stability dG unfold: 0.993 ± 0.08 kcal/mol
[3]
  folding stability dG unfold: 0.766 ± 0.11 kcal/mol

## SAHITISIEVPLPNLKGQTPEEAREVAKDKAREIAKMFNPEFGIKVKEVEVEPHPDEGWLKVDITFEPKSAG [r14_310_TrROS]
[1]
  folding stability dG unfold: 0.998 ± 0.058 kcal/mol
[2]
  folding stability dG unfold: 0.596 ± 0.05 kcal/mol
[3]
  folding stability dG unfold: 0.824 ± 0.2 kcal/mol

## SAHRIMIMFDSPEQAEEIIRKIAEEMGWKPKNIDVEVHPFPVTRPTPDGKKEEHPMYWVTIEIKLKPKKSAG [r14_773_TrROS]
[1]
  folding stability dG unfold: 1.94 ± 0.066 kcal/mol
[2]
  folding stability dG unfold: 2.84 ± 0.096 kcal/mol
[3]
  folding stability dG unfold: 2.37 ± 0.27 kcal/mol

## SAHTISIRIPPNMKPITAEELKKEPGYEVKDINVYPNEDGNMYFTIEVEPGMPPKKMDEILERIRDRMGSAG [r14_421_TrROS]
[1]
  folding stability dG unfold: 0.764 ± 0.034 kcal/mol
[2]
  folding stability dG unfold: 0.911 ± 0.038 kcal/mol
[3]
  folding stability dG unfold: 0.862 ± 0.059 kcal/mol

## SAIKIEEIKDVNPENKNIRIKIEMPGGPHEIPIPAKSEMDVEEALDLILDWFERHFPPGHKMRIEEIEISAG [r14_422_TrROS]
[1]
  folding stability dG unfold: 0.886 ± 0.091 kcal/mol
[2]
  folding stability dG unfold: -0.0828 ± 0.13 kcal/mol
[3]
  folding stability dG unfold: 0.341 ± 0.1 kcal/mol

## SAIPINLPPGDKVKITFRNPDGSRMEIEFDPENGKWKVKMRPNDGKKQEQTIPAGNLDDLPPGVYSIEPVSA [r9_1110_TrROS]
[1]
  folding stability dG unfold: 1.08 ± 0.16 kcal/mol
[2]
  folding stability dG unfold: 1.78 ± 0.27 kcal/mol
[3]
  folding stability dG unfold: 1.33 ± 0.26 kcal/mol

## SAIVLVVADDSPEEAVERARRFAATLRERLVREGYPDADVPIVVEVRAVPPPVPVPVRLPDGDEVVPAPSAG [r14_475_TrMRF]
[1]
  folding stability dG unfold: 0.647 ± 0.1 kcal/mol
[2]
  folding stability dG unfold: 1.7 ± 0.044 kcal/mol
[3]
  folding stability dG unfold: 1.32 ± 0.064 kcal/mol

## SAKAELEIKFPGWKVTVEIEDVDPKNDMVKLKAFFRNGWVFTQTVNPDDGKIEIPIIPVKPDPDGKWKFSAG [r14_466_TrROS]
[1]
  folding stability dG unfold: 1.21 ± 0.032 kcal/mol
[2]
  folding stability dG unfold: 1.38 ± 0.096 kcal/mol
[3]
  folding stability dG unfold: 1.35 ± 0.091 kcal/mol

## SAKEEYYKVRIYFPETNEVVEIEAKSEEEALEALKKLLNEPNIVKIEIEKVEVEEEPEEKEYSEEELKSSAG [r14_747_TrROS_Hall]
[1]
  folding stability dG unfold: 2.02 ± 0.04 kcal/mol
[2]
  folding stability dG unfold: 2.39 ± 0.046 kcal/mol
[3]
  folding stability dG unfold: 2.32 ± 0.12 kcal/mol

## SAKEIASGTFLLDNGATLTVTSIKYDPETGKVSIPVELTVYVPKIDPNDPNKPTIEPFTFKITFTFKVDSAG [r14_888_TrMRF]
[1]
  folding stability dG unfold: 2.51 ± 0.073 kcal/mol
[2]
  folding stability dG unfold: 3.78 ± 0.026 kcal/mol
[3]
  folding stability dG unfold: 3.34 ± 0.087 kcal/mol

## SAKILEIKPLPDGTVIIKIPVDAPEDVDPKEVKILVKSEEGVKEAEILEDGTIDIVVENVKDVKIEIFVESA [r9_722_TrMRF]
[1]
  folding stability dG unfold: 0.305 ± 0.061 kcal/mol
[2]
  folding stability dG unfold: 0.382 ± 0.074 kcal/mol
[3]
  folding stability dG unfold: 0.359 ± 0.1 kcal/mol
